{
  "source": "patent US10471162B2",
  "about": "“Collagen targeted imaging probes” (priority 2014, dated 2019)",
  "key": {"[1]": {"tested_on": "pulmonary fibrosis, C57/BL6 mice (bleomycin or sham)", "conditions": "mouse, in vivo", "description": "Pulmonary fibrosis was induced in 7-8-week-old male C57/BL6 mice by transtracheal administration of bleomycin (BM; 2.5 U/kg) in 50 μL of PBS under direct vision using a small cervical incision. Sham animals received only PBS. Animals were placed in a small-animal PET/SPECT/CT scanner (Triumph; TriFoil Imaging), equipped with inhalation anesthesia and heating pad. Each animal was anesthetized with isoflurane (4% for induction, 1-1.5% for maintenance in medical air). After placement of an in-dwelling catheter in the femoral vein for probe administration, mice were positioned in the PET-CT and the probe was given as a bolus as the PET acquisition began. Mice were imaged continuously by PET for 120 minutes. […] Instrument calibration was performed with phantoms containing small known amounts of radioactivity. […] Reconstructed PET/CT data were quantitatively evaluated using AMIDE software package (Loening and Gambhir, 2003). […] The radioactivity concentration within organs was obtained from mean pixel values within the VOI volume and converted to counts per milliliter per minute and then divided by the injected dose (ID) to obtain an imaging VOI-derived percentage of the injected radioactive dose per cubic centimeter of tissue (% ID/cc). […] Instrument calibration was performed with phantoms containing small known amount of radioactivity. […]"}, "[2]": {"tested_on": "pulmonary fibrosis, low dose bleomycin, vascular leak model", "experiment": "in vivo", "set-up": "species or system mouse", "conditions": "mouse", "description": "(§1) Adult male C57Bl/6 mice were administered a single intratracheal dose of low dose bleomycin at 0.1 U/kg (low dose), in a total volume of 50 μl sterile saline. FTY720 was administered intraperitoneally to the mice at 1 mg/kg three times a week. To effect treatment in the low dose bleomycin, vascular leak model, the therapeutic murine antibody 3G9 (alpha-v-beta6 blocking antibody) and 1E6 (matched isotype control antibody) were used. Antibodies were injected into mice intraperitoneally three times week at a concentration of 1 mg/kg. All administrations of FTY720 and antibodies were initiated on day 0, ˜30 minutes before bleomycin challenge and continued throughout the duration of the experiments. […] The tissues were weighed, and radioactivity in each tissue was measured on a gamma counter (CobraII Auto gamma; Packard). The radioactivity in the lung was reported as percent injected dose per gram corrected with the average sham weight, which was calculated by dividing the counts of ^64Cu per average sham tissue weight in gram by the total of counts of the injected dose. The radioactivity in every other tissue was reported as percent injected dose per gram (% ID/g), which was calculated by dividing the counts of ^64Cu per gram of tissue by the total of counts of the injected dose. […] Uncertainties are expressed as the standard error of the mean."}, "in vivo": {"experiment": "in vivo", "set-up": "species or system mouse", "conditions": "male, C57Bl/6, mouse, iv, total radioactivity, Biodistribution % ID/lung", "description": "as §1"}},
  "data": [
    {"smiles": "CC(C)C[C@H](NC(=O)[C@@H]1CSSC[C@H](NC(=O)[C@H](Cc2c[nH]cn2)NC(=O)[C@H](Cc2c[nH]c3ccccc23)NC(=O)[C@H](CCCCNC(=O)CNC(=O)CCC(C(=O)O)N2CCN(CC(=O)O)CCN(CC(=O)O)CC2)NC(=O)CNC(=O)CCC(C(=O)O)N2CCN(CC(=O)O)CCN(CC(=O)O)CC2)C(=O)N[C@@H]([C@@H](C)O)C(=O)N[C@@H]([C@@H](C)O)C(=O)N[C@@H](CCCCNC(=O)CCC(C(=O)O)N2CCN(CC(=O)O)CCN(CC(=O)O)CC2)C(=O)N[C@@H](Cc2ccccc2)C(=O)N2CCC[C@H]2C(=O)N[C@@H](Cc2c[nH]cn2)C(=O)N[C@@H](Cc2c[nH]cn2)C(=O)N[C@@H](Cc2ccc(O)cc2)C(=O)N1)C(=O)N[C@@H](Cc1ccc(O)cc1)C(=O)N[C@@H](Cc1ccc(-c2ccccc2)cc1)C(N)=O", "note": "(single isomer, unassigned) [CBP8]", "values": [
      {"measurement": "Mean PET activity in heart and muscle, BM-treated vs sham, in words", "setting": "[1]", "result": "not significantly different"},
      {"measurement": "organ uptake between groups, except lungs, in words", "setting": "[2]", "result": "not significantly different"},
      {"measurement": "tissue uptake dose at 2.5 h", "setting": "in vivo", "result": "0.043 ± 0.001", "unit": "%ID"}
    ]}
  ]
}
